B1: BCMB69 (antibody, V domains shown)
VH: QLQLQESGPGLVKPSETLSLTCTVSGGSISSGSYFWGWIRQPPGKGLEWIGSIYYSGITYYNPSLKSRVTISVDTSKNQFSLKLSSVTAADTAVYYCARHDGAVAGLFDYWGQGTLVTVSS
VL: SYVLTQPPSVSVAPGQTARITCGGNNIGSKSVHWYQQPPGQAPVVVVYDDSDRPSGIPERFSGSNSGNTATLTISRVEAGDEAVYYCQVWDSSSDHVVFGGGTKLTVLG
notes: also called BCBM69; antibody derived from the M2 hybridoma
B2: BCMB72 (BCMA×CD3 bispecific antibody, BCMB69 × CD3B219) (bispecific antibody, human IgG4 S228P, lambda, F234A L235A)
heavy 1: EVQLVESGGGLVQPGGSLRLSCAASGFTFNTYAMNWVRQAPGKGLEWVARIRSKYNNYATYYAASVKGRFTISRDDSKNSLYLQMNSLKTEDTAVYYCARHGNFGNSYVSWFAYWGQGTLVTVSSASTKGPSVFPLAPCSRSTSESTAALGCLVKDYFPEPVTVSWNSGALTSGVHTFPAVLQSSGLYSLSSVVTVPSSSLGTKTYTCNVDHKPSNTKVDKRVESKYGPPCPPCPAPEAAGGPSVFLFPPKPKDTLMISRTPEVTCVVVDVSQEDPEVQFNWYVDGVEVHNAKTKPREEQFNSTYRVVSVLTVLHQDWLNGKEYKCKVSNKGLPSSIEKTISKAKGQPREPQVYTLPPSQEEMTKNQVSLTCLVKGFYPSDIAVEWESNGQPENNYKTTPPVLDSDGSFLLYSKLTVDKSRWQEGNVFSCSVMHEALHNHYTQKSLSLSLGK
light 1: QTVVTQEPSLTVSPGGTVTLTCRSSTGAVTTSNYANWVQQKPGQAPRGLIGGTNKRAPGTPARFSGSLLGGKAALTLSGVQPEDEAEYYCALWYSNLWVFGGGTKLTVLGQPKAAPSVTLFPPSSEELQANKATLVCLISDFYPGAVTVAWKADSSPVKAGVETTTPSKQSNNKYAASSYLSLTPEQWKSHRSYSCQVTHEGSTVEKTVAPTECS
heavy 2: not shown
light 2: SYVLTQPPSVSVAPGQTARITCGGNNIGSKSVHWYQQPPGQAPVVVVYDDSDRPSGIPERFSGSNSGNTATLTISRVEAGDEAVYYCQVWDSSSDHVVFGGGTKLTVLGQPKAAPSVTLFPPSSEELQANKATLVCLISDFYPGAVTVAWKGDSSPVKAGVETTTPSKQSNNKYAASSYLSLTPEQWKSHRSYSCQVTHEGSTVEKTVAPTECS
notes: IgG4 made by Fab arm exchange; first heavy/light pair is the CD3B219 arm, second pair the BCMB69 arm; also called B69 × B219; BCMB72.004

Experiments:
cyno BCMA on HEK cells = biological target: T1, cyno BCMA on HEK cells (cyno, UniProt Q02223 1-184 (human entry)); assay: flow cytometry, HEK cells expressing cyno BCMA
T1 construct: also called HEK-expressing cyno BCMA
T1 sequence (Q02223 other isoform, or with tags, fused parts or gaps): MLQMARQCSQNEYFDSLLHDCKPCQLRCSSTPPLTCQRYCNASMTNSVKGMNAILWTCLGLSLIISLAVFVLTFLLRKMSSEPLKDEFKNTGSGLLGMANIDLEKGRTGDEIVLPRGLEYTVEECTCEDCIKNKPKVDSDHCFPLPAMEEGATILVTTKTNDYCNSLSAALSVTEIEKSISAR

[1] = biological target: T2, Recombinant mouse BCMA-Fc fusion protein (R&D Systems catalog #593-BC-050) (mouse, UniProt O88472 1-49); assay: SPR (Biacore T200), biotinylated Fc-BCMA Mouse on a streptavidin chip, BCMB72 as analyte, two-state binding model, Final Complex; column RANGE prints 62.0 - 82.9
T2 construct: also called mBCMA-Fc; Fc-fusion mouse BCMA; not shown: Fc part of the bought fusion protein
T2 chain: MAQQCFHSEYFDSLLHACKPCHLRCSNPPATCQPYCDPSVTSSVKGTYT
Description: (§1) The binding affinities of anti-BCMA×CD3 bispecific antibody (BCMB72) with Fc-fusion BCMA proteins (human, cyno and mouse) were measured by Surface Plasmon Resonance (SPR) using a Biacore T200 system (GE Healthcare, NJ).
(§2) No protein was immobilized on flow-cell 1 and was used as a reference surface. Binding kinetics experiments were performed at 25° C. in running buffer (PBS pH 7.4, 0.005% P20, 3 mM EDTA). BCMB72 was prepared in running buffer starting from 100 nM to 0.16 nM at 5-fold dilutions. These solutions were injected for 5 min (association phase) at 50 μL/min and the dissociation was monitored for 15 min by flowing running buffer. The chip surface was regenerated by short injections of glycine (pH 1.5) and running buffer at 100 μL/min. Binding kinetics analysis of BCMB72 interactions with Fc-BCMA was performed by double referencing of the data by subtracting the curves generated by buffer injection from the reference-subtracted curves for analyte injections. Global kinetics fitting of the sensorgrams was performed using a Two-State binding Model using Biacore T200 Evaluation Software (GE Healthcare, NJ). The binding affinity results from the Two-State binding model for different BCMA species are reported as First Complex (KD1) and Final Complex (KD) (FIG. 5).

[2] = biological target: T3, Soluble human BCMA ECD (AB Biosciences, Catalog no. P011Xp) (human, UniProt Q02223 1-54); assay: cell-based or functional assay
T3 sequence: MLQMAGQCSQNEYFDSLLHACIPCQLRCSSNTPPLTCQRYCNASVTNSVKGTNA

[3] = biological target: T4, Fc-fusion cyno BCMA (in-house; Cat# BCMW6.001) (cyno, UniProt Q02223 1-54 (human entry)); assay: SPR, Fc-BCMA, two-state model, Final KD; Final complex KD, two-state model
T4 construct: also called Fc-BCMA Cy; cyno Fc-BCMA; not shown: Fc part

[4] = biological target: T4, Fc-fusion cyno BCMA (in-house; Cat# …); assay: SPR, Fc-BCMA, two-state model, step 1 (kon1); first step (kon1)
[5] = biological target: T4, Fc-fusion cyno BCMA (in-house; Cat# …); assay: SPR, Fc-BCMA, two-state model, first complex
[6] = biological target: T4, Fc-fusion cyno BCMA (in-house; Cat# …); assay: SPR (Biacore T200), biotinylated Fc-BCMA Cyno on a streptavidin chip, BCMB72 as analyte, two-state binding model, Final Complex; column RANGE prints 5.36 - 7.27
Description: as §1, §2

[7] = biological target: T4, Fc-fusion cyno BCMA (in-house; Cat# …); assay: SPR, Fc-BCMA, two-state model, step 2
[8] = biological target: T2, Recombinant mouse BCMA-Fc fusion …; assay: SPR (Biacore T200), biotinylated Fc-BCMA on streptavidin chip
Description: as §1, §2

[9] = biological target: T4, Fc-fusion cyno BCMA (in-house; Cat# …); assay: as above
Description: as §1, §2

[10] = biological target: T4, Fc-fusion cyno BCMA (in-house; Cat# …); assay: SPR, Fc-BCMA, two-state model, step 1 (koff1); first step (koff1)

Row | Binder | binding result (cyno BCMA on HEK cells) | Kd [1] [nM] | Change of EC50 of cytotoxicity on H929 cells in the presence of soluble BCMA ECD [2] [fold] | Kd [3] [nM] | kon [4] [M⁻¹ s⁻¹] | KD1 [5] [nM] | Kd [6] [nM] | koff2 [7] [s⁻¹] | kon2 [7] [s⁻¹] | fold of average KD compared to human BCMA [8] [fold] | fold of average KD compared to human BCMA [9] [fold] | koff [10] [s⁻¹]
1 | B1 | binds | – | – | – | – | – | – | – | – | – | – | –
2 | B2 | – | 72.4 | 2 | 1.65 | 1.26e+06 | 3.87 | 6.5 | 0.000785 | 0.00106 | ~402 | ~36 | 0.00483

From patent US20170051068A1 (Janssen / Centocor, published 2017)
